Reference: patent publication US20260055143A1, “HIGH AFFINITY VARIANTS OF SH2 DOMAINS” (Axoiya Inc., priority 2023, published 2026)

What was measured:
phosphopeptide = assay: competition binding
[1] = molecular target: pTyr-containing peptide (pEZ) derived from Ezrin, PPV{pTyr}EPVS; assay: fluorescence polarization, purified SH2 domain with fluorescein-labelled ezrin phosphopeptide
[2] = molecular target: pTyr-containing peptide (pEZ) derived from Ezrin, PPV{pTyr}EPVS; assay: fluorescence polarization; the wt is the reference
[3] = molecular target: pTyr-containing peptide (pEZ) derived from Ezrin, PPV{pTyr}EPVS; assay: competitive phage ELISA (IC50), soluble Ezrin phosphopeptide against the immobilized peptide
[4] = molecular target: pMT peptide EEPQ{pTyr}EEIPIY; assay: competitive phage ELISA (IC50), soluble pMT peptide against the immobilized peptide
[5] = molecular target: Phosphopeptide PPPT{pTyr}TEVDP; assay: competitive ELISA, soluble phosphopeptide titrated against the immobilized peptide
[6] = molecular target: Phosphopeptide KQVE{pTyr}LDLDLD; assay: as above

Row | Substance | IC50 (phosphopeptide) [µM] | further results
1 | P85B_N sSrc | > 20 | –
2 | Lck wt | 0.36 | –
3 | Lck sSrc | 0.012 | –
4 | Fes SH2 domain, wild type (Fes^wt) (from UniProt P07332 460-549) | – | IC50 [1]: 1.3 µM; Fold Change [2]: 1 fold
5 | Vav sSrc | 0.95 | –
6 | Src sSrc | 0.019 | –
7 | Nck1 sSrc | 0.1 | –
8 | Abl1 sSrc | 0.29 | –
9 | Grb2 wt | 0.56 | –
10 | Grb2 sFes | 0.09 | –
11 | Vav2 wt | > 20 | –
12 | Btk sSrc | 0.81 | –
13 | Fes^sSrc, Fes SH2 domain with the sSrc superbinder motif grafted (designed binder) | – | fold enhancement of affinity over wt [3]: 650 fold
14 | Nck1 sFes | > 20 | –
15 | Crkl wt | 3.1 | –
16 | P85B_N sFes | 0.22 | –
17 | Blk sSrc | 0.11 | –
18 | Grb2 sSrc | 0.011 | –
19 | P85B_N wt | > 20 | –
20 | Blk wt | > 20 | –
21 | Shc1 sFes | > 20 | –

Row | Substance | IC50 (phosphopeptide) [µM] | further results
22 | Shc1 sSrc | 7.2 | –
23 | Btk wt | > 20 | –
24 | Src^sFes, Src SH2 domain with the sFes superbinder motif grafted (designed binder) | – | fold enhancement of affinity over wt [4]: 125 fold
25 | Vav2 sFes | > 20 | –
26 | P85A_N sSrc | 2.3 | –
27 | Nck1 wt | 2 | –
28 | Abl1 sFes | 0.12 | –
29 | Vav wt | > 20 | –
30 | P85A_N sFes | 0.0009 | –
31 | Abl1 wt | 1.6 | –
32 | Shc1 wt | > 20 | –
33 | Crkl sSrc | 0.027 | –
34 | Btk sFes | 1.1 | –
35 | P55G_N sFes | 1.9 | –
36 | Lck sFes | 0.07 | –
37 | Ptn11_C^sFes/αA-2-Arg (designed binder) | – | IC50 [5]: 1.1 µM
38 | P85A_N wt | 0.54 | –
39 | Vav2 sSrc | 0.872 | –
40 | Vav3 wt | > 20 | –
41 | Blk sFes | 0.94 | –
42 | Ptn11_N^αA-2-Arg, Ptn11_N SH2 domain with the αA-2 position mutated to Arg (designed binder) | – | IC50 [6]: 0.014 µM
